This is an account of results in article PMC12078602 (Nature Communications, 2025).

Data set [1] concerns Cur (Bacteroides thetaiotaomicron VPI-5482). Put plainly: EMSA. (A gel shift assay detects complexes by their altered migration in electrophoresis.)
The target of data set [2] is T1, Glk (BT2493) (Bacteroides thetaiotaomicron, UniProt Q8A4V4).
T1 sequence (Q8A4V4 1-326): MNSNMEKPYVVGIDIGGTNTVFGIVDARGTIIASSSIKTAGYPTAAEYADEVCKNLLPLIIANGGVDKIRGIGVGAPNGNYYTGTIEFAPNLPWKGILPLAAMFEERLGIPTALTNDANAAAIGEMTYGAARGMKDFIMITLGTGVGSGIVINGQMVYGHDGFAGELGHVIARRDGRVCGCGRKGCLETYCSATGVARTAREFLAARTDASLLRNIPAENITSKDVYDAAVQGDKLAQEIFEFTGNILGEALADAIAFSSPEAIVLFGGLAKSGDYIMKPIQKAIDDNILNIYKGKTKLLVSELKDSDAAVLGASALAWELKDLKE
Put plainly: glucokinase activity in vitro, coupled NADH oxidation, […] nm. In kind it is biochemical. The note with it: 50 mM Tris pH 7.4, 3 mM MgCl2, 10 mM NH4Cl; data only in supplement.

Consider fusA2 promoter probe (wild-type), for which the Kd in data set [1] came out at 4.97 pmol. Turning to `OC[C@H]1OC(O)[C@H](O)[C@@H](O)[C@@H]1O` (some centres unmarked) [glucose], the “glucokinase activity in vitro, coupled NADH oxidation, 340 nm” value in data set [2] is “We determined that Glk exhibits glucokinase activity in vitro (Supplementary Fig. 4a)”.
